From PMC11760809

How the values were obtained:
CXCR4-Rluc3 (human) = CXCR4-Rluc3 (human) (UniProt P61073)
SNAP-ACKR3 (human) [1] = target: SNAP-ACKR3 (human) (UniProt P25106)
ACKR3-Rluc3 (human) [2] = target: ACKR3-Rluc3 (human) (UniProt P25106)
SNAP-ACKR3 (human) [3] = target: SNAP-ACKR3 (human) (UniProt P25106); remark: listed apart in the source
ACKR3-Rluc3 (human) [4] = target: ACKR3-Rluc3 (human) (UniProt P25106); remark: listed apart in the source

Sequence of UniProt P61073 (P61073 whole entry): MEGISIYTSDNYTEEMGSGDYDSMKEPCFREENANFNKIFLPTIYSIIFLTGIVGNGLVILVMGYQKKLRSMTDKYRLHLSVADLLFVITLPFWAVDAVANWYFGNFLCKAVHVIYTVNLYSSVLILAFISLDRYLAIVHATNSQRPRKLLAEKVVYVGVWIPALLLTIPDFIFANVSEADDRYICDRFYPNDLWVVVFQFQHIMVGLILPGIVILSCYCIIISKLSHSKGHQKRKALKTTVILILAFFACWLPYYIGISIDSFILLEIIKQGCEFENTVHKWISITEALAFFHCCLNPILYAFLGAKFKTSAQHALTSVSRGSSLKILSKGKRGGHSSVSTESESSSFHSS

- reduction of the efficacy (Emax) of CXCL12-induced β-arrestin recruitment to CXCR4 by RAMP3 (BRET) (CXCR4-Rluc3 (human)): 18.5%
- attenuation of the purely ligand-induced (CXCL12) internalization of ACKR3 by RAMP3 (DERET) (SNAP-ACKR3 (human) [1]): 50%
- reduction of total ACKR3 internalization in response to CXCL12 (100 nM) on co-expression of HA-RAMP3, compared to ACKR3 alone (DERET, AUC 90 min) (SNAP-ACKR3 (human) [1]): 25%
- decrease of the efficacy of CXCL11-induced β-arrestin recruitment to ACKR3 with HA-RAMP3 (BRET) (ACKR3-Rluc3 (human) [2]): 47%
- decrease of the efficacy of TC14012-induced β-arrestin recruitment to ACKR3 with HA-RAMP3 (BRET) (ACKR3-Rluc3 (human) [2]): 39%
- decrease of the efficacy of VUF11207-induced β-arrestin recruitment to ACKR3 with HA-RAMP3 (BRET) (ACKR3-Rluc3 (human) [2]): 30%
- ACKR3 remaining at the surface after CXCL12-induced internalization when HA-RAMP3 was present (∼53% without it; SNAP surface labelling) (SNAP-ACKR3 (human) [3]): 65%
- decrease of the CXCL12-induced Emax of β-arrestin recruitment to ACKR3 on co-expression with RAMP3 (BRET) (ACKR3-Rluc3 (human) [4]): 40%
B1: 3xHA-RAMP3 (natural protein)
chain: RAGGCNETGMLERLPLCGKAFADMMGKVDVWKWCNLSEFIVYYESFTNCTEMEANVVGCYWPNPLAQGFITGIHRQFFSNCTVDRVHLEDPPDEVLIPLIVIPVVLTVAMAGLVVWRSKRTDTLL
